Experimental data published in US20250277048A1 (Regeneron, published 2025).

Assays:
[1] = biological target: T1, human CD40 (hCD40) expressed on cells (human, UniProt P25942 21-277); test: cell-based or functional assay
[2] = biological target: T1, human CD40 (hCD40) expressed on cells; test: cell-based or functional assay; remark: listed apart in the source
[3] = biological target: T1, human CD40 (hCD40) expressed on cells; test: cell-based or functional assay; remark: listed apart in the source
[4] = biological target: T2, human CD40 extracellular domain expressed with a C-terminal myc-myc-hexahistidine tag (human); test: ELISA blocking of 40 nM hCD40-mmH binding to 9His-hCD40L
T2 construct: also called hCD40-MMH; hCD40-mmH
Excerpt: An ELISA-based blocking assay was developed to determine the ability of C40×CD40 bispecific antibodies to block the binding of the hCD40 monomer to plate-coated hCD40L. The recombinant human CD40-mmH protein (hCD40-MMH; REGN3094; SEQ ID NO: 53) used in the experiments comprises a portion of the human CD40 extracellular domain (amino acids P20-R193) fused to 2×Myc peptide and 6×histadine (SEQ ID NO: 1110) at the C-terminus of human CD40, and the human CD40L (accession #NM_000074.2) with amino acids E108-L261 of the extracellular domain with 9×His-2×(SGGG)-IGER at the N-terminus (9His-hCD40L) was commercially obtained from Biolegend.
In the blocking assay, 9His-hCD40L was passively absorbed at a concentration of 5 μg/mL in PBS on a 96-well microtiter plate overnight at 4° C. […] In a separate 96-well microtiter plate, a fixed amount of 40 nM hCD40-mmH was pre-mixed with one of the following antibodies, at concentrations ranging from 977 pM to 1 μM in PBS+0.5% BSA: (1) CD40×CD40 bispecific antibodies (REGN16431, REGN16432, REGN16634, and REGN16335); (2) parental CD40 mAbs (bivalent antibodies comprising 2 fragment antigen-binding [Fab] arms identical to one of anti-CD40 Fab of CD40×CD40 antibodies); (3) CD40×Irrelevant antibodies (bivalent antibodies that incorporate one Fab arm identical to one of anti-CD40 Fab of CD40×CD40 antibodies and another Fab arm specific to an irrelevant antigen); and (4) human IgG4 with Fc mutation isotype control antibodies (REGN7540 and REGN4513). The fixed concentration of hCD40-mmH was selected to be near the concentration (EC₅₀ value) that generated 50% of the maximal binding to the plate-adhered 9His-hCD40L. After one-hour incubation, the antibody-antigen complexes were transferred to the microtiter plate coated with 9His-hCD40L. After one hour incubation at room temperature, the plates were washed, and plate-bound hCD40-mmH protein was detected with horseradish peroxidase (HRP) conjugated goat anti-c-Myc antibody. The plates were then developed using TMB substrate solution (BD Biosciences) according to the manufacturer's recommended procedure and the absorbance at 450 nm (OD₄₅₀) was measured on a SpectraMax i3×plate reader.

[5] = biological target: T1, human CD40 (hCD40) expressed on cells; test: flow cytometry, Ramos 2G6.4C10 cells
Method: (§1) Cells were washed with 2% FBS (w/v) in 1×PBS (flow cytometry staining buffer) by centrifugation with benchtop Centrifuge 5810R (Eppendorf®, Hamburg, Germany). Cells were incubated for 30 minutes at 4° C. with serial dilutions of following antibodies ranging from 1.7 pM to 100 nM in flow cytometry staining buffer (1) anti-CD40×CD40 bispecific antibodies, or (2) parental anti-CD40 antibodies (bivalent antibodies comprising 2 fragment antigen-binding [Fab] arms identical to one of the two anti-CD40 Fab of bispecific anti-CD40×CD40 antibodies), or (3) anti-CD40×Irrelevant antibodies (bivalent antibodies that incorporate one Fab arm identical to one of anti-CD40 Fab of anti-CD40×CD40 antibodies and another Fab arm specific to an irrelevant antigen, i.e. birch pollen main allergen Bet v1), or (4) human IgG4 isotype control antibodies with Fc mutation. After washing, cell bound antibodies were detected with 2.5 μg/ml Allophycocyanin (APC)-conjugated goat anti-human IgG antibody specific for the Fcγ fragment (Jackson Immunoresearch, West Grove, PA) for 30 minutes at 4° C. Cells were washed and subsequently fixed with 50% solution of Cytofix™ Fixation Buffer (BD, Franklin Lakes, NJ) in flow cytometry staining buffer for 20 minutes at room temperature. Cells were washed and resuspended in flow cytometry staining buffer and stored at 4° C. for downstream flow cytometry analysis.
(§2) Acquisition of fluorescence signals were recorded on the ZE5 Cell Analyzer (Bio-Rad, Hercules, CA) according to the manufacturer's recommended procedure and flow cytometry data analysis was performed using the open-source R packages flowCore, flowStats, flowDensity, ggCyto, and flowAI. Multiplexed samples were deconvoluted and individual cell populations were identified based on their unique CellTrace™ fluorescence signature. APC Median Fluorescence intensity (MFI) was recorded to indicate the binding intensity of each antibody over a range of concentrations. Antibodies with MFI greater than 1500 at the highest tested concentration (100 nM) were classified as specific binders. In addition, direct binding signals (APC MFI) were analyzed as a function of the antibody concentration and data were fitted with a sigmoidal (four-parameter logistic) dose-response model using GraphPad Prism™ software.

[6] = biological target: T3, Macaca fascicularis CD40 (mfCD40) expressed on HEK293/D9/mfCD40 cells (Macaca fascicularis, UniProt G7PG38 21-278); test: flow cytometry, HEK293/D9/mfCD40 cells
T3 construct: whole, on cells; also called monkey CD40
Method: as §1, §2

[7] = biological target: T1, human CD40 (hCD40) expressed on cells; test: flow cytometry, HEK293/D9/hCD40 cells
Method: as §1, §2

[8] = biological target: T1, human CD40 (hCD40) expressed on cells; test: cell-based or functional assay; remark: listed apart in the source
[9] = biological target: T1, human CD40 (hCD40) expressed on cells; test: cell-based or functional assay; remark: listed apart in the source
[10] = biological target: T1, human CD40 (hCD40) expressed on cells; test: cell-based or functional assay; remark: listed apart in the source

T1 sequence (P25942 21-277): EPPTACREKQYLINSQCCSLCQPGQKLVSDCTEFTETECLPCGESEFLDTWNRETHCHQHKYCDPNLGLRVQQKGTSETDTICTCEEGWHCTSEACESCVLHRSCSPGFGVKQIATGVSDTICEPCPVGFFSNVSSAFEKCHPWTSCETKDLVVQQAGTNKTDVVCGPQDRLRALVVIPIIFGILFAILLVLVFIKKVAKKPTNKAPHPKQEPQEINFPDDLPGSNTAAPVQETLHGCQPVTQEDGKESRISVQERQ
T2 sequence (chain, as listed by the source limits assumed): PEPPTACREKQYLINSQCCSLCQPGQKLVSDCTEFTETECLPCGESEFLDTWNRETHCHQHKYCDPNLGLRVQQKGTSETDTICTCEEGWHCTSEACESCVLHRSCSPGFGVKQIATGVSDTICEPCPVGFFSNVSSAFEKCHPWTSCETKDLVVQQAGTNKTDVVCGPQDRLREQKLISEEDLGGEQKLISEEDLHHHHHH

Row | Max % activation, no ligand, Ramos NFkB-luc [1] | Max % inhibition, 500 pM hCD40L, Ramos NFkB-luc [1] | IC50, 900 pM hCD40L, Raji NFkB-luc [2] | Max % activation, no ligand, Raji NFkB-luc [2] | Max % inhibition, 900 pM hCD40L, Raji NFkB-luc [2] | Max % activation, no ligand, THP-1 NFkB-luc [3] | Max % inhibition, 10 nM hCD40L, THP-1 NFkB-luc [3] | % Blocking at 1 uM mAb [4] | EC50 [5] | MFI at 100 nM [5] | EC50 [6] | MFI at 100 nM [6] | EC50 [7] | MFI at 100 nM [7] | Binder | other results
1 | 4% | -133% | 2.72e-11 M | 10% | 55% | 1% | -92% | 10% | 0.47 nM | 2660 MFI | 1.1 nM | 32900 MFI | 0.76 nM | 20500 MFI | REGN17289 (antibody, V domains shown, bivalent mAb with two Fab arms identical to the 30027 arm; also called Parental CD40 (30027)) VH: EVQLVESGGGLVQPGGSLRLSCAASGFTFSSYAMNWVRQAPGKGLEWVSIISGTIGKTYYADSVKGRFTISRDNSKNTLYLQMNSLRGEDTAVYYCAKDTERDITGSPFDYWGQGTLVTVSS VL: not shown | EC50 (potentiation), 500 pM hCD40L, Ramos NFkB-luc [1]: 7.51e-12 M; EC50 (potentiation), 10 nM hCD40L, THP-1 NFkB-luc [3]: 0.016 nM
2 |  |  |  |  |  |  |  |  |  |  |  |  |  |  | REGN20484 (bispecific antibody, human IgG4 S228P, kappa) heavy 1: EVQLVESGGGLVQPGGSLRLSCAASGFTFGSYGMAWVRQAPGKGLEWVSAISGSGDYTNYADSVKRRFTISRDNSKNTLYLQMSSLRAEDTAVYYCAKEKTGTTGYLYSGMDVWGQGTTVTVSSASTKGPSVFPLAPCSRSTSESTAALGCLVKDYFPEPVTVSWNSGALTSGVHTFPAVLQSSGLYSLSSVVTVPSSSLGTKTYTCNVDHKPSNTKVDKRVESKYGPPCPPCPAPGGGGPSVFLFPPKPKDTLMISRTPEVTCVVVDVSQEDPEVQFNWYVDGVEVHNAKTKPREEQFNSTYRVVSVLTVLHQDWLNGKEYKCKVSNKGLPSSIEKTISKAKGQPREPQVYTLPPSQEEMTKNQVSLTCLVKGFYPSDIAVEWESNGQPENNYKTTPPVLDSDGSFFLYSRLTVDKSRWQEGNVFSCSVMHEALHNHYTQKSLSLSLGK heavy 2: EVQLVESGGGLVQPGGSLRLSCAASGFTFSSYAMNWVRQAPGKGLEWVSIISGTIGKTYYADSVKGRFTISRDNSKNTLYLQMNSLRGEDTAVYYCAKDTERDITGSPFDYWGQGTLVTVSSASTKGPSVFPLAPCSRSTSESTAALGCLVKDYFPEPVTVSWNSGALTSGVHTFPAVLQSSGLYSLSSVVTVPSSSLGTKTYTCNVDHKPSNTKVDKRVESKYGPPCPPCPAPGGGGPSVFLFPPKPKDTLMISRTPEVTCVVVDVSQEDPEVQFNWYVDGVEVHNAKTKPREEQFNSTYRVVSVLTVLHQDWLNGKEYKCKVSNKGLPSSIEKTISKAKGQPREPQVYTLPPSQEEMTKNQVSLTCLVKGFYPSDIAVEWESNGQPENNYKTTPPVLDSDGSFFLYSRLTVDKSRWQEGNVFSCSVMHEALHNRFTQKSLSLSPGK light: not shown | % max blockade relative to no mAb, IL-6, assay #2 donor 1 [8]: 89%; % max blockade relative to no mAb, IL-6, assay #2 donor 2 [8]: 88.1%; % max blockade relative to no mAb, TNFa, assay #2 donor 1 [9]: 61.9%; % max blockade relative to no mAb, TNFa, assay #2 donor 2 [9]: 52.3%; % max blockade relative to no mAb, IL-10, assay #2 donor 1 [10]: 87.1%; % max blockade relative to no mAb, IL-10, assay #2 donor 2 [10]: 90.9%
3 | 10% | 77% | 1.35e-10 M | 11% | 81% | 4% | 96% | 91% | 0.87 nM | 2440 MFI | 4.3 nM | 23200 MFI | 0.98 nM | 20500 MFI | REGN17544 (antibody, V domains shown, bivalent mAb with two Fab arms identical to the 21520 arm; also called Parental CD40 (21520)) VH: EVQLVESGGGLVQPGGSLRLSCAASGFTFGSYGMAWVRQAPGKGLEWVSAISGSGDYTNYADSVKRRFTISRDNSKNTLYLQMSSLRAEDTAVYYCAKEKTGTTGYLYSGMDVWGQGTTVTVSS VL: not shown | IC50, 500 pM hCD40L, Ramos NFkB-luc [1]: 1.89e-10 M; IC50, 10 nM hCD40L, THP-1 NFkB-luc [3]: 1.13 nM; IC50 [4]: 71 nM
